Among the data in paper PMC3870659 are FCRL4 mRNA (microarray) in anti-IgM + CpG stimulated B cells, 6 h with gp120 values, retold here.

The target in the assay is integrin α4β7 on freshly isolated human primary B cells (human (endogenous in primary B cells)) (UniProt P13612).
UniProt P13612, sequence (P13612 34-1032, chain 1 of 2): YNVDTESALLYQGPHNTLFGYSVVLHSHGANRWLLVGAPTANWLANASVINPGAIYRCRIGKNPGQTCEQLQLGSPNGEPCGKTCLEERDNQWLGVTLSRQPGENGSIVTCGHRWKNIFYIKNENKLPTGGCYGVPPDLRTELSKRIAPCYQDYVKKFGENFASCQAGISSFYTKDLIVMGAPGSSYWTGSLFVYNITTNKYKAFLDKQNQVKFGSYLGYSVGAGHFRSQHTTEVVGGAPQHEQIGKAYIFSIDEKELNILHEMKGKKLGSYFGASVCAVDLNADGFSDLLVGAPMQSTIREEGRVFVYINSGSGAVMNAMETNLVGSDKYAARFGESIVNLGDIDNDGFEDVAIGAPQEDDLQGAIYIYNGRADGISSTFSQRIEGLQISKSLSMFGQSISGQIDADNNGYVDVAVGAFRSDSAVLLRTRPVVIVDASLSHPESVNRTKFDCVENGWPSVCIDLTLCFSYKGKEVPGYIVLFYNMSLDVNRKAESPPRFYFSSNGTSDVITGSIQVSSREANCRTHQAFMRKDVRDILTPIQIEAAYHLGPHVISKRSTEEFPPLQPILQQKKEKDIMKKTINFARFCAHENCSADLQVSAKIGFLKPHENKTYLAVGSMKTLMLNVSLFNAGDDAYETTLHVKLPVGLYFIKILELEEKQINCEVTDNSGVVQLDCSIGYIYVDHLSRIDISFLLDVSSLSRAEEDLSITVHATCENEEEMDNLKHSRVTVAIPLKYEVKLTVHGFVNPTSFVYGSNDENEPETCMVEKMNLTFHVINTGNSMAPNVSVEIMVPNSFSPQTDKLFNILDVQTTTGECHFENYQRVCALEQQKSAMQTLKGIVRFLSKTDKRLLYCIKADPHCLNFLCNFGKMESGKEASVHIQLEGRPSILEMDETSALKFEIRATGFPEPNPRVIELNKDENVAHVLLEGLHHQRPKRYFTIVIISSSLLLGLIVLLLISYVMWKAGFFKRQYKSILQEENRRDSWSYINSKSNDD
UniProt P13612, sequence (P26010 20-798, chain 2 of 2, further chain): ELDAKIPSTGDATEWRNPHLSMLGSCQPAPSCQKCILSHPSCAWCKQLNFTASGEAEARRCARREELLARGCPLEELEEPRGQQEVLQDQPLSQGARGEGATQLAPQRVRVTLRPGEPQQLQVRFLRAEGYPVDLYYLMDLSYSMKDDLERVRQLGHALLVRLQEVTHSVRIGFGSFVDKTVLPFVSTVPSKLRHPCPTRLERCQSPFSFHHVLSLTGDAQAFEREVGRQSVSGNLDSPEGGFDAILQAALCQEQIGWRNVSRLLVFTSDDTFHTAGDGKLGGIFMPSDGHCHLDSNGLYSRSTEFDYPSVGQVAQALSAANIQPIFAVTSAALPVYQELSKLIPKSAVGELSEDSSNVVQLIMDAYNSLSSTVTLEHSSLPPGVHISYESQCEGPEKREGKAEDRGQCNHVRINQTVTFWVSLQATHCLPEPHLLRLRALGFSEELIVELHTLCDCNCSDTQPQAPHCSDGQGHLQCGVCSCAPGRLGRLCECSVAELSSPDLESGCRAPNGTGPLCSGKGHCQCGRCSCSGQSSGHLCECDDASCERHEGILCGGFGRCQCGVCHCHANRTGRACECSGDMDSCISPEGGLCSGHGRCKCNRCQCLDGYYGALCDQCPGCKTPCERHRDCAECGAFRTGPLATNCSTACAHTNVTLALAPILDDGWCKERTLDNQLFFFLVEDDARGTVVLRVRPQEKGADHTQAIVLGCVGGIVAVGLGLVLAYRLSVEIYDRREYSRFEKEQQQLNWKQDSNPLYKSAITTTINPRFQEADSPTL

For “R66M gp120 (HIV-1 envelope protein gp120 of the early viral isolate R66M, subtype A/C) (natural protein)”, the FCRL4 mRNA (microarray) in anti-IgM + CpG stimulated B cells, 6 h with gp120 was determined as 8 fold.
